Experimental data as given in patent publication US20060292565A1.

Biological target: stimulatory G-protein, Gs

[35S]GTPγS binding in the presence of 10 µM isoproterenol: 770000 dpm/mg
Substance: Gly-389 beta-1 adrenergic receptor
